Tested on: inflamed eye of male albino rabbits
Experiment: In vivo treatment of ocular inflammation induced by arachidonic acid sodium salt
Set-up: species or system rabbit
Details: 50 μl given 30 minutes after 0.5% arachidonic acid sodium salt; scored 30-210 minutes
Procedure: Inflammation in the eye of male albino rabbits as described in Example 7 is induced by applying a drop of eye drops containing 0.5% arachidonic acid sodium salt (SA-irritating agent) at time 0. After 30 minutes, the sample under examination is administered to the inflamed eye. Finally, the ocular inflammation index is evaluated at different time points. In the present test, the samples under examination were: • I) 50 μl of free lactoferrin (not encapsulated into the lipid bilayer of liposomes) dissolved in PBS (comparative example); • II) 50 μl of F2 liposomes.
As positive control (C+-comparative), a rabbit administered with SA at time 0, without any administration after 30 minutes, has been used.
The ocular inflammation has been evaluated for each time point at 30, 60, 90, 120, 150, 180 and 210 minutes and the inflammation index has been consequently calculated for each time point according to the tables of the previous Example.

B1: lactoferrin (protein, UniProt P02788 20-710, looked up)
Lactotransferrin: GRRRSVQWCAVSQPEATKCFQWQRNMRKVRGPPVSCIKRDSPIQCIQAIAENRADAVTLDGGFIYEAGLAPYKLRPVAAEVYGTERQPRTHYYAVAVVKKGGSFQLNELQGLKSCHTGLRRTAGWNVPIGTLRPFLNWTGPPEPIEAAVARFFSASCVPGADKGQFPNLCRLCAGTGENKCAFSSQEPYFSYSGAFKCLRDGAGDVAFIRESTVFEDLSDEAERDEYELLCPDNTRKPVDKFKDCHLARVPSHAVVARSVNGKEDAIWNLLRQAQEKFGKDKSPKFQLFGSPSGQKDLLFKDSAIGFSRVPPRIDSGLYLGSGYFTAIQNLRKSEEEVAARRARVVWCAVGEQELRKCNQWSGLSEGSVTCSSASTTEDCIALVLKGEADAMSLDGGYVYTAGKCGLVPVLAENYKSQQSSDPDPNCVDRPVEGYLAVAVVRRSDTSLTWNSVKGKKSCHTAVDRTAGWNIPMGLLFNQTGSCKFDEYFSQSCAPGSDPRSNLCALCIGDEQGENKCVPNSNERYYGYTGAFRCLAENAGDVAFVKDVTVLQNTDGNNNEAWAKDLKLADFALLCLDGKRKPVTEARSCHLAMAPNHAVVSRMDKVERLKQVLLHQQAKFGRNGSDCPDKFCLFQSETKNLLFNDNTECLARLHGKTTYEKYLGPQYVAGITNLKKCSTSPLLEACEFLRK
Which “Treatment of ocular inflammation (ocular inflammation score, FIG. 1)” value does the source give for B1 here?
Its value is “not obtained”.

— patent US20200046641A1, “LIPOSOMES FOR THE TREATMENT OF OCULAR DISEASES” (TDC Technology Dedicated to Care srl, priority 2018, published 2020)
